Where two headings read alike, the source gives them in different places. The star is where a group is joined. Biotin = O=C1N[C@H]2[C@H](CS[C@H]2CCCCC(=O)*)N1
Legend:
NHE3 = target: T1, NHE3 (Mus musculus, UniProt G3X939); assay: NHE3 activity in mouse jejunum in vitro, BCECF/microscopy; type: cell-based; details: FIG. 4B
T1 construct: from tissue; host or cells: mouse jejunum, exposed in vitro
Protocol: (§1) FIG. 4A is a bar graph depicting the results when Caco-2/HA-NHE3 cells were exposed to IRCX-CP (400 nM) for 15 minutes then basal, carbachol (cch) (10 μM) inhibited and EGF (200 ng/ml) stimulated NHE3 were determined (n=4). FIG. 4B is another bar graph depicting the effects when mouse jejunum was exposed in vitro to IRCX-CP (400 nM) and/or forskolin (10 μM) for 15 minutes with NHE3 activity determined by BCECF.
The fluorescent peptides described above were then loaded into PS120/NHERF2/NHE3, Caco2/NHE3 cells, and mouse small intestine. It was established that loading reaches a maximum in 15 minutes (37° C.) (FIG. 3) and is stable for at least 6 hours. To evaluate the effect of these peptides on NHE3 regulation, PS120 and Caco-2 cells were exposed to 400-1600 nM Bodipy 577/618-peptide and used BCECF/fluorometry to characterize the peptide's effects on basal NHE3 activity and after Ca^2+ elevation and EGF exposure. In studies in both cell types, all peptide concentrations studied stimulated basal NHE3 activity by about 40%, and reduced Ca^2+ inhibition of NHE3 by about 50% in PS 120 cells (data not shown) and entirely in Caco-2 cells (FIG. 4A).

rabbit NHE3 (rNHE3) [1] = target: T2, rabbit NHE3 (rNHE3) (Oryctolagus cuniculus, UniProt P26432); type: cell-based; set-up: amplified from pcDNA 3.1 containing the full-length NHE3V (pcDNA 3.1/NHE3V); expressed in transfected cells
rabbit NHE3 (rNHE3) [2] = target: T2, rabbit NHE3 (rNHE3); assay: BCECF/fluorometry Na+/H+ exchange activity in Caco-2 cells; type: cell-based; set-up: expressed in transfected cells; host or cells: Caco-2BBe cells, transient adenoviral infection (ADLOX.HTM shuttle vector, CMV promoter)
Protocol: as §1
Cell Lines. PS120 fibroblasts lack all endogenous plasma membrane NHEs, NHERF1 (minimal expression), NHERF2, NHERF3 and NHERF4. These cells, when stably expressing rabbit NHE3 with a C-terminal VSV-G protein epitope tag and NHERF2, are called PS120/NHE3/NHERF2 cells (or PS120/E3V/NHERF2 cells), as described (stable cell lines made using pcDNA 3.1, G418 and hygromycin, Invitrogen). Caco-2BBe cells express all four members of the NHERF gene family and small amounts NHE3 (Caco-2BBe/3HA-NHE3 cells). Triple HA-tagged rabbit NHE3 was expressed by adenovirus into Caco-2BBe cells for transport and biochemical analysis.
Adenoviral Constructs/Infection. Caco-2BBe cells which endogenously express the four members of the NHERF gene family and small amounts of NHE3 were transiently infected with triple HA-tagged rNHE3 previously engineered into replication-deficient Adeno-viral shuttle vector ADLOX.HTM under a cytomegalovirus promoter. Caco-2BBe cells were first grown on Transwell filters (Corning) until 12 days post-confluence in “Caco-2 medium.” Cells were then treated with serum-free media containing 6 mM EGTA for 2 hours at 37° C. to allow the tight junctions to open, further exposing apical and basolateral surfaces to the virus. […]
Measurement of Na^+/H^+ Exchange. Cellular Na^+/H^+ exchange activity in PS 120 cells grown to about 70% confluency on glass coverslips was determined fluorometrically using the intracellular pH-sensitive dye 2′,7′-bis(carboxyethyl)5-6-carboxyfluoresceinacetoxymethyl ester (BCECF-AM, 5μM; Molecular Probes, Eugene, Oreg.). […] At the end of each experiment, the fluorescence ratio was calibrated to pHi using the high potassium/nigericin method. Na^+/H^+ exchange activity data were calculated as the product of Na^+ dependent changes in pHi times the buffering capacity at each pHi, and individual points shown in the figures are ratios of Na^+/H^+ exchange calculated at multiple pHi values using at least three coverslips per condition in a single experiment. Kinetics of Na^+/H^+ exchange were analyzed by Hill plot using Origin (Microcal Software) to estimate Vmax and K′(H^+)i in individual experiments. Means+/−S.E.M. were determined from at least three separate experiments. […]

[3] = test system: murine jejunum exposed to cholera toxin; details: mouse, in vivo

T2 sequence (P26432 30-832): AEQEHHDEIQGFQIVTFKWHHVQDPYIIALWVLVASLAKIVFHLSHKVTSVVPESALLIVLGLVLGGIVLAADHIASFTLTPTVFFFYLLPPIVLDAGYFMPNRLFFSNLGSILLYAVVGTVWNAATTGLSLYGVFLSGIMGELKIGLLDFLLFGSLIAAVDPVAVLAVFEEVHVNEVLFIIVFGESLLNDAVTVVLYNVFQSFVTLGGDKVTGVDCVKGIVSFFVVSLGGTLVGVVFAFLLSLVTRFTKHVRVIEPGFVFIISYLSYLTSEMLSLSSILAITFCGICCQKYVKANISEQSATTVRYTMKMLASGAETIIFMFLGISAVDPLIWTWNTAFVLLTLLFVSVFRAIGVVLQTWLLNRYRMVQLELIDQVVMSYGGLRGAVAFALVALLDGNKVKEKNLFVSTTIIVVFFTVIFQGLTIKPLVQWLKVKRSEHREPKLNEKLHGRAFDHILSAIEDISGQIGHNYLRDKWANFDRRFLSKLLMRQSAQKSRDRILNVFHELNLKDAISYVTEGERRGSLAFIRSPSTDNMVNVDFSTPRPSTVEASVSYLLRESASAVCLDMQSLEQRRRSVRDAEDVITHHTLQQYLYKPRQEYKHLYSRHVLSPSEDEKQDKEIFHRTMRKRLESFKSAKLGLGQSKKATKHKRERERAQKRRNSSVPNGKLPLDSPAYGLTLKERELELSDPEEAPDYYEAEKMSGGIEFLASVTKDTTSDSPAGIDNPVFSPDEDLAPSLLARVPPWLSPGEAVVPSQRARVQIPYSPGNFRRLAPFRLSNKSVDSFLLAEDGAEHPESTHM
T1 sequence (G3X939 27-829): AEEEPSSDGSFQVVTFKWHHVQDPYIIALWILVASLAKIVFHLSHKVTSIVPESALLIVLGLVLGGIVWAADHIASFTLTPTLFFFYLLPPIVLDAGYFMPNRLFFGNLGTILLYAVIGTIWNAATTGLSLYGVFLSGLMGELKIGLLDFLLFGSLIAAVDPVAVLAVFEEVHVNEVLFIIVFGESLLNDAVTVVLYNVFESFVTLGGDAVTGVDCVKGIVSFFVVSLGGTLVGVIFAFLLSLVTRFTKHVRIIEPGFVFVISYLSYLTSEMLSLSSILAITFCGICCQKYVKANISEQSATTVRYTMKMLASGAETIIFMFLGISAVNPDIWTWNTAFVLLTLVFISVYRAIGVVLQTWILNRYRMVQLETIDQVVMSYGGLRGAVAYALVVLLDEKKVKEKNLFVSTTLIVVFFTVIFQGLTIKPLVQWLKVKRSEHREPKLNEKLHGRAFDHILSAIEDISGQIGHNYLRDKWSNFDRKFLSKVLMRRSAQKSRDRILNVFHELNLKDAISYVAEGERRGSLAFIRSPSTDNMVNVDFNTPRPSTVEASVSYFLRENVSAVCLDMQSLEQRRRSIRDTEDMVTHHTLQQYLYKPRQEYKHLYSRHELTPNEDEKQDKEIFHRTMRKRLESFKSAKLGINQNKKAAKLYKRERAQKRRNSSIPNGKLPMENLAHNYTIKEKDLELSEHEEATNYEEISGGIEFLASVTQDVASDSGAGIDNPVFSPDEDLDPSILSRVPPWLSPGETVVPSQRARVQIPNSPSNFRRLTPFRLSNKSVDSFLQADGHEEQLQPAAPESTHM

In the case of “Bodipy 577/618-peptide: 38 aa rabbit NHE3 aa 568-605 peptide (SEQ ID NO: 1), biotin on N-terminus, C-terminus linked to Bodipy 577/618 maleimide (Biotin-NVDFSTPRPSTVEASVSYLLRESASAVCLDMQSLEQRR-{Bodipy 577/618 maleimide}; listed as Oryctolagus cuniculus)”, the “stimulation of basal NHE3 activity” value (NHE3; 400 nM, 15 minutes) is reported as 60%, the “prevention of NHE3 inhibition by forskolin” value (NHE3; forskolin 10 μM, 400 nM peptide) is reported as “totally prevented” and the “peptide concentration at which effects were maximum” value (rabbit NHE3 (rNHE3) [1]) is reported as 400 nM. The “reduction of Ca2+ inhibition of NHE3” value (rabbit NHE3 (rNHE3) [1]) was “about 50%”, the “stimulation of basal NHE3 activity” value (rabbit NHE3 (rNHE3) [1]) was “about 40%” and the “stimulation of basal NHE3 activity” value (rabbit NHE3 (rNHE3) [2]; 400-1600 nM peptide, all concentrations studied) was “about 40%”. For the same substance, the “reduction of Ca2+ inhibition of NHE3” value (rabbit NHE3 (rNHE3) [2]; after Ca2+ elevation (carbachol 10 μM), FIG. 4A) was “entirely”, the “peptide concentration at which effects were maximum” value (rabbit NHE3 (rNHE3) [2]; effect at saturation) was 400 nM and the “cholera toxin fluid accumulation” value [3] was “prevented cholera toxin fluid accumulation”.

“NVDFSTPRPSTVEASVSYLLRESASAVCLDMQSLEQRR (listed as Oryctolagus cuniculus) [peptide without Bodipy]” was tested, and the “effect on NHE3 activity” value (rabbit NHE3 (rNHE3) [1]) was “did not alter NHE3 activity” and the “effect on NHE3 activity” value (rabbit NHE3 (rNHE3) [2]) was “did not alter NHE3 activity”.

From patent publication US9850292B2, “Compositions which regulate the epithelial brush border Na+/H+ exchanger NHE3 and their methods of use in gastrointestinal disease” (THE JOHNS HOPKINS UNIVERSITY, priority 2012, dated 2017)
